What was measured:
[1] = co-transfection of WT and mutant, 293T-EmGFP syncytia; settings: glycan lost; control: WT syncytin-2 plus empty vector
[2] = Western blot of 293T-EmGFP lysates; settings: glycan lost; control: wild type
[3] = syncytia formation in 293T-EmGFP cells, 36 h; settings: glycan lost; control: wild type

Substance	other: fusogenic activity of co-expressed wild type [1]	expression_or_secretion [2]	other: fusogenic activity, other: fusion score (−, +, ++) [3]
syncytin-2: N133Q	decreases	no change	
syncytin-2: N146Q		no change	no change
syncytin-2: N177Q		no change	no change
syncytin-2: N220Q		no change	no change
syncytin-2: N241Q		no change	no change
syncytin-2: N247Q		no change	no change
syncytin-2: N332Q		no change	increases
syncytin-2: N443Q	decreases	no change	

— publication PMC4853038
